Measured values reported in patent US20200255503A1 (Regeneron, published 2020).

Experiments:
[1] = target: T1, Fel d1 (B-A)-mmH (cat (Felis domesticus)); assay: SPR, mAb captured, Fel d1 (B-A)-mmH injected, 25 C;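 also: rate constants obtained by fitting sensorgrams to a one-to-one binding model, Kd computed as koff over kon, half-life derived from koff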
T1 construct: Expressed in CHO cells; also called rFel d1.mmH; rFel d1-mmH
Experimental: Antibody-antigen association was monitored for 3 to 5 minutes, and the dissociation of antigen from the captured monoclonal antibody (in running buffer alone at 25° C.) was monitored for 10 or 15 minutes. Kinetic association (kₐ) and dissociation (kₐ) rate constants were determined by processing and fitting the data to a 1:1 binding model using Scrubber 2.0 curve fitting software. Binding dissociation equilibrium constants (KD) and dissociative half-lives (t_{1/2}) were calculated from the kinetic rate constants as: KD=kd/kₐ and t_{1/2}=ln(2)/kₐ.

[2] = target: rFel d1.mFc (dimeric) (cat (Felis domesticus)); assay: SPR Biacore T200, mAb captured by anti-human Fc, antigen injected
Text: (§1) The binding kinetic parameters were obtained by globally fitting the double reference subtracted data to a 1:1 binding model with mass transport limitation using Biacore T200 Evaluation Software, version 1.0.

[3] = target: T1, Fel d1 (B-A)-mmH; assay: as above
Text: as §1

T1 sequence (chain, as listed by the source limits assumed): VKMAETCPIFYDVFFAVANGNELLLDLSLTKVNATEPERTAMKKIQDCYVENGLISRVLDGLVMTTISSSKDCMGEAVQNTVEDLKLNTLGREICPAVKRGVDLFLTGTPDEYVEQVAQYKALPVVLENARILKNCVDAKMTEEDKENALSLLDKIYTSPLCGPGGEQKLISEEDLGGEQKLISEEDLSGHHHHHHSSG
Chain of rFel d1.mFc (dimeric) (cat (Felis domesticus)) (chain, as listed by the source limits assumed): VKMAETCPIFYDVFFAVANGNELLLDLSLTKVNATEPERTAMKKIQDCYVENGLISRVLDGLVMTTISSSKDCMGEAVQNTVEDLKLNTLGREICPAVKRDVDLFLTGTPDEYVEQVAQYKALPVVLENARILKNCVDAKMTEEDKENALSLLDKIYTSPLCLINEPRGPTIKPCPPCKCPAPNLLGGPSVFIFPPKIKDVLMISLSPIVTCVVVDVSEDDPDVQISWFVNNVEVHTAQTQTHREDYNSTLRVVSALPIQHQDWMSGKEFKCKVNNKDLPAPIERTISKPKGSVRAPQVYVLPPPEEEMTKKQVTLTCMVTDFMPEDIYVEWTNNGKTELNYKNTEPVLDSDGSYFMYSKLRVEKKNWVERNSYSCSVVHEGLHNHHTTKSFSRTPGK

| Kd [1] | koff [1] | kon [1] | t1/2 [1] | Kd [2] | T1/2 [2] | koff [2] | kon [2] | Kd [3] | T1/2 [3] | koff [3] | kon [3] | Binder |
| --- | --- | --- | --- | --- | --- | --- | --- | --- | --- | --- | --- | --- |
| 8.21 nM | 0.00188 s⁻¹ | 229000 M⁻¹ s⁻¹ | 6 min |  |  |  |  |  |  |  |  | H4H1616N (antibody, human IgG4, V domains shown, human IgG4 Fc (prefix H4H)) VH: EVELLESGGGLVQPGGSLRLSCAASGFTFSSYAMSWVRQAPGKGLEWVSSISGRVGSTHFADSVKGRFTFSRDNSKNTLYLQLSSLRAEDTAVYYCARSRGAAYFDYWGQGTLVTVSS VL: DIQMTQSPSSLSASVGDRVTITCQANQDISNFLNWYQQRPGKAPNLLIYAASNLETGVPSRFSGSGSGTDFTFTISSLQPEDIATYYCQHYDNFPFTFGPGTKVDIK |
| 1.31 nM | 0.00051 s⁻¹ | 388000 M⁻¹ s⁻¹ | 23 min |  |  |  |  |  |  |  |  | H1M1230N (antibody, V domains shown, chimeric, human variable domains with mouse Fc (prefix H1M)) VH: EVQLVESGGGLVQPGGSLRLSCTASGFIFSNFWMTWVRQAPGKGLEWVANIKQDGSETYCVDSVKGRFTISRDHAKNSLFLQMNSLRAEDTAVYYCARGAGTIYYYGMDVWGQGTTVIVSS VL: DIQMTQSPSSVSASVGDRLTITCRASQDISSWLTWYQQKPGKAPNLLIYAASGLQSGVPSRFSGSGSGTDFTLTISNLQPEDFATYYCQQANSFPLTFGQGTRLEIK |
| 5.58 nM | 0.00142 s⁻¹ | 254000 M⁻¹ s⁻¹ | 8 min |  |  |  |  |  |  |  |  | H1M1234N (antibody, V domains shown, chimeric, human variable domains with mouse Fc (prefix H1M)) VH: QVQLQQSGPGLVKSSQTLSLTCAISGDSVSSNSVAWNWIRQSPSRGLEWLGRTYYRSKWYNDYAVSVKSRININPDTSKNHFSLQLNSVTPEDTAVYFCARAWNWYYLDYWGQGTLVTVSS VL: not shown |
| 0.544 nM | 0.000166 s⁻¹ | 305000 M⁻¹ s⁻¹ | 70 min |  |  |  |  |  |  |  |  | H2M1233N (antibody, mouse IgG2, V domains shown, chimeric, human variable domains with mouse IgG2 Fc (prefix H2M)) VH: QVVLVESGGGVVQPGRSLRLSCAASGFTFSSYGMHWVRQAPGKGLEWVAVIWYDGSNKYYVDSVKGRFTISRDNSNNTIYLQMNSLRAEDTAVYYCARSLIPVAGTDPIFGYWGQGTLVTVSS VL: DIQMTQSPSTLSASVGDRVTITCRASQSVSSWLAWYQQKPGKAPKLLIFKASGLESGVPFRFSGSGSGTEFTLTISSLQPDDFATYYCQQYNTYSPTFGQGTKVEIK |
| 0.458 nM | 0.000165 s⁻¹ | 359000 M⁻¹ s⁻¹ | 70 min |  |  |  |  |  |  |  |  | H2M1237N (antibody, mouse IgG2, V domains shown, chimeric, human variable domains with mouse IgG2 Fc (prefix H2M)) VH: QVVLVESGGGVVQPGRSLRLSCAASGFTFSSYGMHWVRQAPGKGLEWVAVIWYDGSIKYYADSVKGRFTISRDNSNNTIYLQMNSLRAEDTAVYYCARALIPVAGTDPIFGYWGQGTLVTVSS VL: DIQMTQSPSTLSASVGDRVTITCRASQSVSSWLAWYQQKPGKAPKLLIFKTSGLESGVPFRFSGSGSGTEFTLTISSLQPDDFATYYCQQYNTYSPTFGQGTKVEIK |
| 0.558 nM | 0.000232 s⁻¹ | 415000 M⁻¹ s⁻¹ | 50 min |  |  |  |  |  |  |  |  | H2M1236N (antibody, mouse IgG2, V domains shown, chimeric, human variable domains with mouse IgG2 Fc (prefix H2M)) VH: QVQLQESGPGLVKPSETLSLTCTVSGGSISNYYWSWIRQPPGKGLEWIGYIYYSGRTNYNPSLKSRVTISVDTSKNQFSLKLRSVTAADTAVYYCARHRITRTADSFDYWGQGTLVTVSS VL: DIQMTQSPSSLSASVGDRVTITCQASQDITNYLNWYQQKPGKAPKLLIYDASNLETGVPSRFSGSGSGTDFTFTISSLQPEDVATFYCHQYGDLPYTFGQGTKLEIK |
| 0.331 nM | 0.000112 s⁻¹ | 337000 M⁻¹ s⁻¹ | 104 min |  |  |  |  |  |  |  |  | H1M1241N (antibody, V domains shown, chimeric, human variable domains with mouse Fc (prefix H1M)) VH: EVQLVESGGGLVKPGGSLRLSCAASGFTFSSYSMNWVRQAPGKGLEWVSSISSRSSYIYYADSVKGRFTISRDNAKNSLYLQMNSLRAEDTAVYYCARDHIVVVPGASYYYYGMDVWGQGTTVTVSS VL: DIQMTQSPSSLSASVGDRVTITCRASQGIRNDLGWYQQKPGKAPKRLISAASSLQSGVPSRFSGSGSGTEFTLTISSLQPEDFATYYCLQHNSYPLTFGGGTKVEIK |
| 0.449 nM | 0.000122 s⁻¹ | 272000 M⁻¹ s⁻¹ | 94 min |  |  |  |  |  |  |  |  | H2M1242N (antibody, mouse IgG2, V domains shown, chimeric, human variable domains with mouse IgG2 Fc (prefix H2M)) VH: EVQLVESGGGLVRPGGSLRLSCAASGFTFTSYAMNWVRQAPGKGLEWVSSISSYSSYIYIADSVKGRFTLSRDNAKNSLYLQMHSLRPEDTAVYFCAREGYSAYSYFDFWGRGTLVTVSS VL: DIQMTQSPSTLSASVGDRVTITCRASQSVISWLAWYQQKPGKAPKLLIHRASSLESGVPSRFSGSGSGTEFTLTISGLQPDDFATYYCQQYNTYFPTFGQGTKVEVK |
| 0.402 nM | 0.000521 s⁻¹ | 1.3e+06 M⁻¹ s⁻¹ | 22 min |  |  |  |  |  |  |  |  | H4H2594S (antibody, human IgG4, V domains shown, human IgG4 Fc (prefix H4H)) VH: EVQLVESGGGLVKPGGSLRLSCAASGFTFSDYYMNWIRQAPGKGLEWVSYISSSGSSIYYADSVKGRFTISRDNAKNSLYLLMNSLRAEDTAVYYCARDGKYNSSPGDYWGQGTLVTVSS VL: DIQMTQSPSSLSASVGDRVTIACRASQGISNYLAWFQQKPGKAPKSLIYAASSLQSGVPSKFSGSGSGTDFTLTISSLQPEDFATYYCQQYNSYPLTFGGGTKVEIKR |
| 0.501 nM | 0.000558 s⁻¹ | 1.12e+06 M⁻¹ s⁻¹ | 21 min |  |  |  |  |  |  |  |  | H4H2597B (antibody, human IgG4, V domains shown, human IgG4 Fc (prefix H4H)) VH: EVQLVESGGGLVQPGGSLRLSCAVSGFTFSNYAMNWVRQAPGKGLEWVSVISDSGRSTYYADSVKGRFTISRDNSKNTLYLQMNSLRAEDTAVYFCAKRYNWNLHYFDYWGQGTTVTVSS VL: EIVLTQSPDFQSVTPKEKVTITCRASQSIGGSLHWYQQKPDQSPKLLIKYASQSFSGVPSRFSGSGSGTDFTLTINSLEAEDAATYYCLQSSSLRTFGQGTKVEIKR |
| 0.388 nM | 0.000486 s⁻¹ | 1.26e+06 M⁻¹ s⁻¹ | 24 min |  |  |  |  |  |  |  |  | H4H2606B (antibody, human IgG4, V domains shown, human IgG4 Fc (prefix H4H)) VH: EVQLVESGGGLVKPGGSLRLSCAASGFTFSDYYMNWIRQAPGKGLEWVSYISSSGNSIYYADSVKGRFTISRDNAKNSLFLQMSSLRAEDTAVYYCARDGRYNDRRRGYYWGQGTLVTVSS VL: EIVMTQSPDFQSVTPKEKVTITCRASQSIGSSLHWYQQKPDQSPKLLIKYASQSFSGVPSRFSGSGSGTDFTLTINSLEAEDAATYYCLQSSSLRTFGQGTKVEIKR |
| 0.364 nM | 0.000563 s⁻¹ | 1.55e+06 M⁻¹ s⁻¹ | 21 min |  |  |  |  |  |  |  |  | H4H2607B (antibody, human IgG4, V domains shown, human IgG4 Fc (prefix H4H)) VH: EVQLVESGGGLVKPGGSLRLSCAASGFTFSDYYMNWIRQAPGKGLEWISYLSSSGSATYYADSVKGRFTISRDNAKNSLYLQMNSLRAEDTAVYYCARDGKYNTVAGDYWGQGTTVTVSS VL: DIQLTQSPSSLSASVGDRVTITCRASQGIRNDLGWYQQKPGKAPKRLIYAASSLQSGVPSRFSGSGSGTEFTLTISSLQPEDFATYYCLQHNSYPYTFGQGTKVEIKR |
| 0.924 nM | 0.000228 s⁻¹ | 247000 M⁻¹ s⁻¹ | 51 min |  |  |  |  |  |  |  |  | H4H2636B (antibody, human IgG4, V domains shown, human IgG4 Fc (prefix H4H)) VH: EVQLVESGGGLVQPGGSLRLSCAASGFTFSSYAMSWVRQAPGKGLEWVSAISGRGYNADYADSVKGRFTISRDNSKNTLYLQMNSLRAEDTAVYYCAKLEYFDYWGQGTTVTVSS VL: DIQLTQSPSTLSASVGDRVTITCRASQSISSWLAWYQQKPGKAPKLLIYKASSLESGVPSRFSGSGSGTDFTLTISSLRPEDFATYYCQQYNSYPLTFGGGTKVEIKR |
| 4.69 nM | 0.00205 s⁻¹ | 437000 M⁻¹ s⁻¹ | 6 min |  |  |  |  |  |  |  |  | H4H2797P (antibody, human IgG4, V domains shown, human IgG4 Fc (prefix H4H)) VH: QVQLVESGGGVVLPGRSLRLSCAASGFTFSSYLMYWVRQAPGKGLEWVAVIWYDGSNKFYGDSVKGRFTISRDNSKNTLYLQMNSLRAEDTAVYYCARDNGNSGYEDSWNAFDIWGQGTMVTVSS VL: DIQMTQSPSSLSASVGDRVTITCRASQDIYNYLAWFQQKPGKAPKSLIYAASSLQTGVPSQFSGSGSGTDFTLTISSLQPEDFATYYCQQYNNYPFTFGPGTKVDIK |
| 0.576 nM | 0.000309 s⁻¹ | 537000 M⁻¹ s⁻¹ | 37 min |  |  |  |  |  |  |  |  | H4H2864P (antibody, human IgG4, V domains shown, human IgG4 Fc (prefix H4H)) VH: EVQLVESGGGLAQPGGSLRLSCAASGFTFNNYAMTWVRQAPGKGLDWVSAISDSGRSTFSADSVKGRFTISRDNSKNTLYLQMDSLRAEDTALYYCAKHRNWNYPVFDYWGQGTLVTVSS VL: DIQLTQSPSFLSASVGDRVTITCWASQGISSYLAWYQQKPGKAPKLLIYSASTLQSGVPSRFSGSGSGTEFTLTISSLQPEDFATYYCQQLNSYPFTFGPGTKVDIK |
| 0.368 nM | 0.000179 s⁻¹ | 487000 M⁻¹ s⁻¹ | 65 min |  |  |  |  |  |  |  |  | H4H2645P (antibody, human IgG4, V domains shown, human IgG4 Fc (prefix H4H)) VH: EVQLVESGGGLVQPGGSLRLSCAASGFTFSTYAMHWVRQAPGKGLEWVSSISGRGRNSDHADSVKGRFTISRDNSKNTLYLQMNSLRAEDTAVYYCARTEYFHHWGQGTLVTVSS VL: DIQMTQSPSSLSASVGDRITITCRASQDINNYLAWFQQKPGKAPKSLIYGASSLQSGVPSKFSGSGSGTDFTLTISSLQPEDFATYYCQQYSSYPFTFGPGTKVDIK |
| 0.912 nM | 0.000235 s⁻¹ | 257000 M⁻¹ s⁻¹ | 49 min | 0.0978 nM | 254 min | 4.55e-05 s⁻¹ | 466000 M⁻¹ s⁻¹ | 0.912 nM | 49 min | 0.000235 s⁻¹ | 257000 M⁻¹ s⁻¹ | H4H2636P (antibody, human IgG4, V domains shown, human IgG4 Fc (prefix H4H); also called REGN1909) VH: EVQLVESGGGLVQPGGSLRLSCAASGFTFSSYAMSWVRQAPGKGLEWVSAISGRGYNADYADSVKGRFTISRDNSKNTLYLQMNSLRAEDTAVYYCAKLEYFDYWGQGTLVTVSS VL: DIQMTQSPSTLSASVGDRVTITCRASQSISSWLAWYQQKPGKAPKLLIYKASSLESGVPSRFSGSGSGTDFTLTISSLRPEDFATYYCQQYNSYPLTFGGGTKVEIK |
| 0.144 nM | 0.000258 s⁻¹ | 1.79e+06 M⁻¹ s⁻¹ | 45 min | 0.0316 nM | 159 min | 7.25e-05 s⁻¹ | 2.3e+06 M⁻¹ s⁻¹ | 0.187 nM | 46 min | 0.000251 s⁻¹ | 1.34e+06 M⁻¹ s⁻¹ | H4H1232N (antibody, human IgG4, V domains shown, human IgG4 Fc (prefix H4H); also called REGN1908) VH: EVQLVESGGGLVKPGGSLRLSCAASGFTFRNYNINWVRQAPGKGLEWVSLISGSSSYIYYADSVKGRFTVSRDNAKNSLYLQMNSLRAEDTAVYYCARRTLSYYVMDVWGQGTTVTVSS VL: DIQVTQSPSPLSASVGDRVTITCRASQGISNYLAWYQQKPGRVPQLLIYAASTLQSGVPSRFSGSGSGTDFTLTISSLQPEDVATYYCQKYNSAPYTFGQGTKLEIK |
